Assay results: the DeepSol protein solubility set

Experiment: soluble on expression in E. coli; label from the status in PepcDB or PDB records

Sequence | soluble on expression in E. coli
MEKRITTPLTDEVVKSLRAGDKVLITGYIYTARDAAHKRMVEAIQRGEKPPIDLKGQIIYYVGPTPPKPGQVIGSAGPTTAIRMDKYVEPLLKLGLKGMIGKGYRSPQVKELLKKYKAVYFAAVGGVATLLQKHIKSSELIAYEDLGTEAIRRLYVEDFPVIVANDAFGGDVFEEGRKKYAKIDV | soluble
MEKVQSISNGTNSISYTLTRSRRKTVGIRITENGEVKVAAPLNIPDRQLKDIILKKLPWILRKQEELRKICEESRLENKFADGETFLYLGKEYTLRIAKGVLPEGVNLEENYIVVAADETKVSVNGPQYIRNVLKNFYVNQFVDIAKTRMDFFSPKIGVCPRKLTVREQKTRWGSCSSKGNISLNWKLVMAPMEVIDYVIVHELCHMKEMNHSKNYWNIVKSIIPDFELRRKWLKDNGHRLLM | soluble
MEKYPEIQQMRSKMREGDDTNEFKIRPLKGLSHPSGNLQMQRFQEDRRERIHSIRKRENQDGRLDLIGVVGEITVVIDDVVYEEEKLRKVVFTMKG | not soluble
MELFKEISQEESNKDSKENDNINEEIDIEQLKDKVKDLELQLEYEIKQHNVEIAEREETIKILETRIQELEHYKNDITEKDEAIINMSEKLLILSNKYDILVKESKLQEEELKHFKNKKKYRNDKTNEYILGLRNQNDEIKKEHELLNEKYAQLVKEYAILQNSCKVLNEQLENNQKNMELLIKEKSNNLDEKTAIKILNIGSKELIHKRVHNKNVDELSNLKLELEYKDMILNKLMRKQVSEGKTIKVEYTNNENKFENEKKLGEMYQKYLDSVCDNDNLKKEINKLHNKINDMKVEEEEHLKTISILRDYINKMYKEDVNINQFDDLINNILKDNTSLNEELSKQKRKNMADIYYFTKELQIVKKDKFKIIEKFDSKKVTNIPHLYEPLNLTLSKENNKREISDDDDDNKGPKGDLNFLKKNSDINCSESNIKKPLKTNDLVHIYMQDYMNNVQNKA | not soluble
MELKDGESAGNAENDVEIENPEKSEKAEILQSLDKSLGKSTEESPEAKNLRYFKTKKIRFGPIEYQIVTQNINGPCPLIALINALVLKGKLTIPSSYVVTSTNLLNLLTNVILARAPPENDEKLKETFEANLGDVMNIMETLVNGLDVNVKFSAVDTFEFTPALSLFDLVSVNLYHVWLPDPQFTVLYDLIRNLNYNELVEKMCGDQSTETELLRTFYDESISQITFHGLASLMERMKDGELAVVFHNNHFSTILKRRDEIFKLVSDEGLCDEPNIVWETFSSVDGDCIFVNGDFGNFKPITPPTTHPSPESFEKLQISDNSPIEQGIEAVEHTSAHHSAPVSPQHRAPAPPAPQTARAPPETSPTRNSGAGGKSCLIM | soluble
MELTLESQGYLESLYRAYLEDPLSLPEDWRRYFSALTLEDLEDGRRERQAAPLPGEALDLGFLLKVEALRQAYRELGHLAARIDPLGRERPRPKALSLEAHGLSPEDLKRPLPPLFGAPTLGALLERLEATYLGPVGFEVAHVEPEERAWLLSRIEAPWPKPAPEVRRRVLRSLLQASLFEAFLQRKYLGAKTFSVEGLESLIPLLQEAVQEAARFGVREVVLGMAHRGRLNVLAHVVEKPFEAIFREFEELFPEGYVGDVKYHLGHSTDVETPWGPVHVSLNFNPSHLEFVNPVALGRVRAKQDRFGDRERKRGLAVLVHGDAAFIGEGIVQETLNLSQLPGYRVGGTLHVVANNQLGFTTLPSEYTSSRYPTDVAKMVGAPIFHVNAEALDELLFVLALALEYRSRYGKDVVIDLVGYRRRGHNETDEPTFTQPGMYALIAKKPEPWRVYAERLEAEGLVSEEELKAWQEAYLERLESEFARVKAEATPVVYSTLGGVWQGYVGGPDHLVPEADTAFPKEGLKNLLVRLSSVPEGFQVHPKLKRFLEARREMAEEKRPVDWATAEALAFATLAVEGHRVRLTGQDALRGTFTQRHAALYDYRTGERYIPLQHLAEGQAEVEIHNSPLSEAGVLGFEYGYSLDYPEGLVLWEAQFGDFVNVAQVYIDQFLASAEVKWNRLSGLVLLLPHGLEGQGPEHSSARLERFLQLAAKDNLQVAYPTTPAQFFHLLRRQVKRKIRKPLVVMTPKSLLRHPEVVSALEELAEGRFQKVIPERVKGARKVLLTSGKVYYDLLQKRKELQAEDVAILRLELLYPFPEAELQEALGAYPKKVPVVFVQEEPVNQGAWWYLSARFCGEIYGHPFSVVARPESPSPAVGSSKVHKLEQEELLEEAFR | soluble
MENEKIWIKELKEKRLAYGVSQNKLAVASHITRPYLSDIETGKAVPTQQVKEDLLNALERFNPDNPLEMLFDYVRIRFPTNDVAQIIGEVLRLNMDYMLHEDFGYYSYPEHYRFGDIVVLVSHDVSKGVLLELKGKGCRQFENFLLAQHRSWYDFFQDCMEHKGIFKRLDLAINDKTGILNIPDLAKKCKQEECISVFRSFKNYRSGELVHRDEKPYMGNTLYIGSLKSEVYFCIYEKDYEQYVKNDVPLEDAEVKNRFEIRLKNDRATQAMKDLLAHQQAEKTAFEIINRYIRFADKDDTKRRSDWKTNERWEWFIGKNRGALRLTTQPEPYSFERTLNWLHHQVAPTLKIASILDVLNGTTIISTMIQEAKLTEKHEKLIEQQHLAMEDLIT | not soluble
MENFAEIVGIGPAGVISITGGGGKTSLMFHLARQLAYSGKRVLTTTTTKILAPSVEESRTLLISQDPQVILRHAKAHPGPGVHVSAAAGHIPHTEKLQGFPREAIRTFEDSGEFDWVVVEADGAARKPLKAPAAHEPVIPGNSTIVVALAGLEVLGRPLGEEMVFRSELAGELMQIPQGETITVPALARLLAHPSGGFKGAPPQARRFIFLNKADTPELQEKGGEVALQLKEIAPSVAEAVIVGQLRQEITLHRVYPRGELEHHHHHH | soluble
MENGEVLISGYRIPYSYAAMPGVKKNLVIIDIKGDEIWQKLRAADRINEWKINVYIPHFIAGSKEVVDSEPSSNLDSAGEFYYNFVQAMRLKNVMLMGEGINADVALKCSMIHPERFSNVIAIDGTGYDGYAEELYRVQKPVLLVWGGARGYRETMIGQSYHDLIAGSVFKVFDNSKRPLEDSTDRFFSMLKNYIAVD | not soluble
MENLKETVDIVVNSRYPEMNREGRELLAQVLIRKELEKGEMLLNEGQISRHMVFVGKGMLRQFYYKNGKDVTEHFSYEGCILMCIESLLKQEPTHLMAEALEPAVVYMLPYDVLQKLLEQSKEINAFYRKVLEYSLIVSQIKADSWRFETARERYNLLLHHHPEIIKRAPLSHIASYLLMTPETLSRVRSGVL | not soluble
MENMENDENIVVGPKPFYPIEEGSAGTQLRKYMERYAKLGAIAFTNAVTGVDYSYAEYLEKSCCLGKALQNYGLVVDGRIALCSENCEEFFIPVIAGLFIGVGVAPTNEIYTLRELVHSLGISKPTIVFSSKKGLDKVITVQKTVTTIKTIVILDSKVDYRGYQCLDTFIKRNTPPGFQASSFKTVEVDRKEQVALIMNSSGSTGLPKGVQLTHENTVTRFSHARDPIYGNQVSPGTAVLTVVPFHHGFGMFTTLGYLICGFRVVMLTKFDEETFLKTLQDYKCTSVILVPTLFAILNKSELLNKYDLSNLVEIASGGAPLSKEVGEAVARRFNLPGVRQGYGLTETTSAIIITPEGDDKPGASGKVVPLFKAKVIDLDTKKSLGPNRRGEVCVKGPMLMKGYVNNPEATKELIDEEGWLHTGDIGYYDEEKHFFIVDRLKSLIKYKGYQVPPAELESVLLQHPSIFDAGVAGVPDPVAGELPGAVVVLESGKNMTEKEVMDYVASQVSNAKRLRGGVRFVDEVPKGLTGKIDGRAIREILKKPVAKM | soluble
MENSDDIRLIVKIAQLYYEQDMTQAQIARELGIYRTTISRLLKRGREQGIVTIAINYDYNENLWLEQQLKQKFGLKEAVVASSDGLLEEEQLSAMGQHGALLVDRLLEPGDIIGFSWGRAVRSLVENLPQRSQSRQVICVPIIGGPSGKLESRYHVNTLTYGAAARLKAESHLADFPALLDNPLIRNGIMQSQHFKTISSYWDSLDVALVGIGSPAIRDGANWHAFYGSEESDDLNARHVAGDICSRFYDINGGLVDTNMSEKTLSIEMAKLRQARYSIGIAMGEEKYSGILGALHGRYINCLVTNRETAELLLK | soluble
MENSGHKVYYCMGSPLFALNAGRMENNLVAFSGGLSINKQLQKEGKPGINVSPSFINENNPDTIFISGFLSRPLDEFYTLCRQYGIETDAVKQQRVYEVPPSWDFGNPRWILGLMYIADKLYPGNSGIDLEKEADEFYRQFYGMPYLEHHHHHH | soluble
